Values of other authors, collected in PMC9607845.
Where two headings read alike, the source gives them in different places.

Key:
[1] = target: BCOR peptide (Homo sapiens) (UniProt Q6W2J9)
[2] = target: SMRT SMRT peptide (Homo sapiens) (UniProt Q9Y618)
[3] = target: BCOR BCOR peptide (Homo sapiens) (UniProt Q6W2J9)
[4] = target: SMRT peptide (Homo sapiens) (UniProt Q9Y618)
[5] = target: Mig6 segment 1 peptide (Homo sapiens) (UniProt Q9UJM3)
[6] = target: Mig6 segment 1 peptide segment 1 (Homo sapiens) (UniProt Q9UJM3)
[7] = target: p63 peptide (Homo sapiens) (UniProt Q9H3D4)
[8] = target: p73 peptide (Homo sapiens) (UniProt O15350)
[9] = target: p73 peptide (Homo sapiens) (UniProt O15350); remark: listed apart in the source
[10] = target: p63 peptide (Homo sapiens) (UniProt Q9H3D4); remark: listed apart in the source

MDM2 MDM2N, sequence (Q00987 17-125): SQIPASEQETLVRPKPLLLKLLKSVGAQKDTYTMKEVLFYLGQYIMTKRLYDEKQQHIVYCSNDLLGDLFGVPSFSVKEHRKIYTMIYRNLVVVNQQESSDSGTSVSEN
p73 peptide (Homo sapiens), sequence (O15350 whole entry): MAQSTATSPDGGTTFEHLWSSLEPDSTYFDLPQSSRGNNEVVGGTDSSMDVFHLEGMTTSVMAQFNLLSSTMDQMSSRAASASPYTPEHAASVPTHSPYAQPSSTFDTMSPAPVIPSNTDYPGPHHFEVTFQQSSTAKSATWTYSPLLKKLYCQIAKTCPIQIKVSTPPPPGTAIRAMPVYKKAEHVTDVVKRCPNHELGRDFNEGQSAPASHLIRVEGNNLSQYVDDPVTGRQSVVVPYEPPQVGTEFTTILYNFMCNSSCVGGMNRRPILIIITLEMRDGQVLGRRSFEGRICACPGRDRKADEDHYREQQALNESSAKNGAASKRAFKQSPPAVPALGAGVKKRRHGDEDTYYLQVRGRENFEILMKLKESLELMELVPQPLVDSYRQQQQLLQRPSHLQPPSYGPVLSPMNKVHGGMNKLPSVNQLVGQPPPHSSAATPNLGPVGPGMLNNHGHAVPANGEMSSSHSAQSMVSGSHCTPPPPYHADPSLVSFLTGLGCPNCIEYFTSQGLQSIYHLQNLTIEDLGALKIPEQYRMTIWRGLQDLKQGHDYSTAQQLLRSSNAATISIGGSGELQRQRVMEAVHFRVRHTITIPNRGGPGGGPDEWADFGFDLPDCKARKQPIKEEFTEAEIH
BCOR peptide (Homo sapiens), sequence (Q6W2J9 whole entry): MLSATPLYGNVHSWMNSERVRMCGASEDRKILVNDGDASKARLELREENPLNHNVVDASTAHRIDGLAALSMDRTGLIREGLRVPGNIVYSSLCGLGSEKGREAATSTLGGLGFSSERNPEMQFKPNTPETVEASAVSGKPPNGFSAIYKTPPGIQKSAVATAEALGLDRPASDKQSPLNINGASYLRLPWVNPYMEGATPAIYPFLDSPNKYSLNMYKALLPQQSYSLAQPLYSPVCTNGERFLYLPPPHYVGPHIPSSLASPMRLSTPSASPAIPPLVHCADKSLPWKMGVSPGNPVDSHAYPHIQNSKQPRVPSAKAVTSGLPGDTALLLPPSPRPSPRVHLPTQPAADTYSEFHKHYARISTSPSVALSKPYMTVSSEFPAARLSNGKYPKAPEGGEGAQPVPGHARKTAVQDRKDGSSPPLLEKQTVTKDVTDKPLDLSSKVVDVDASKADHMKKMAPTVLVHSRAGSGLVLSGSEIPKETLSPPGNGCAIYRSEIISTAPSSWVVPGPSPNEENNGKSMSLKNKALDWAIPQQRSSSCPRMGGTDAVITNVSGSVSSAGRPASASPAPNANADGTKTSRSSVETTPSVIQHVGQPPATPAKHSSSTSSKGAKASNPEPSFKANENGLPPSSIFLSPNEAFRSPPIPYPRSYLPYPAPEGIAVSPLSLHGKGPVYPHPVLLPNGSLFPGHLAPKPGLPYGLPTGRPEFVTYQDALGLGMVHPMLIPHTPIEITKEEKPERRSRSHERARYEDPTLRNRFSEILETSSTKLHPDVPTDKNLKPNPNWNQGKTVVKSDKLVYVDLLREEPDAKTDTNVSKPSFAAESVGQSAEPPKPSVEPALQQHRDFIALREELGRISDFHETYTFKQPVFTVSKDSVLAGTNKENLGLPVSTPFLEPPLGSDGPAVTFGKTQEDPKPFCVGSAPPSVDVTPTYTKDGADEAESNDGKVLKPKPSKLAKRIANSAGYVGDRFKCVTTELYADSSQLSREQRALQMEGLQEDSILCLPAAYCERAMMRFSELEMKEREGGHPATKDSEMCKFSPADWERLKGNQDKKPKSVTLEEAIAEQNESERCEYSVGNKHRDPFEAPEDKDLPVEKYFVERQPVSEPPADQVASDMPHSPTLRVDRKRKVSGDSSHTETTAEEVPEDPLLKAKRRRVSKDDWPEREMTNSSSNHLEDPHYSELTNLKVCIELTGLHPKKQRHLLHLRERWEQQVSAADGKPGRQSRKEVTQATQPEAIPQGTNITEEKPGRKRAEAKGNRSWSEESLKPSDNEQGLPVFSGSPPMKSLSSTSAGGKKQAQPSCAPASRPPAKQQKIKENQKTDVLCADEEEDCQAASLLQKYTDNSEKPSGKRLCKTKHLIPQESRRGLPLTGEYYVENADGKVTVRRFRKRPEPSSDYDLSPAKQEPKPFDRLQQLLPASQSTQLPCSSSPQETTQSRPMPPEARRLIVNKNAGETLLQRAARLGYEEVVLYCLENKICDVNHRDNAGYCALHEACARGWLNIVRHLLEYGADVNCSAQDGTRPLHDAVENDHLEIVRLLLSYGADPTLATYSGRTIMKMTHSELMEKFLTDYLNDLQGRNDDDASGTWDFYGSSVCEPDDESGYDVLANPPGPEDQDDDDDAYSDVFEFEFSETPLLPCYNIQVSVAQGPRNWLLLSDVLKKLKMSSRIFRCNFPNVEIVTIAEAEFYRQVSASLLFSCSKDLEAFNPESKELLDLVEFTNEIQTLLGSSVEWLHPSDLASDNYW
SMRT peptide (Homo sapiens), sequence (Q9Y618 whole entry): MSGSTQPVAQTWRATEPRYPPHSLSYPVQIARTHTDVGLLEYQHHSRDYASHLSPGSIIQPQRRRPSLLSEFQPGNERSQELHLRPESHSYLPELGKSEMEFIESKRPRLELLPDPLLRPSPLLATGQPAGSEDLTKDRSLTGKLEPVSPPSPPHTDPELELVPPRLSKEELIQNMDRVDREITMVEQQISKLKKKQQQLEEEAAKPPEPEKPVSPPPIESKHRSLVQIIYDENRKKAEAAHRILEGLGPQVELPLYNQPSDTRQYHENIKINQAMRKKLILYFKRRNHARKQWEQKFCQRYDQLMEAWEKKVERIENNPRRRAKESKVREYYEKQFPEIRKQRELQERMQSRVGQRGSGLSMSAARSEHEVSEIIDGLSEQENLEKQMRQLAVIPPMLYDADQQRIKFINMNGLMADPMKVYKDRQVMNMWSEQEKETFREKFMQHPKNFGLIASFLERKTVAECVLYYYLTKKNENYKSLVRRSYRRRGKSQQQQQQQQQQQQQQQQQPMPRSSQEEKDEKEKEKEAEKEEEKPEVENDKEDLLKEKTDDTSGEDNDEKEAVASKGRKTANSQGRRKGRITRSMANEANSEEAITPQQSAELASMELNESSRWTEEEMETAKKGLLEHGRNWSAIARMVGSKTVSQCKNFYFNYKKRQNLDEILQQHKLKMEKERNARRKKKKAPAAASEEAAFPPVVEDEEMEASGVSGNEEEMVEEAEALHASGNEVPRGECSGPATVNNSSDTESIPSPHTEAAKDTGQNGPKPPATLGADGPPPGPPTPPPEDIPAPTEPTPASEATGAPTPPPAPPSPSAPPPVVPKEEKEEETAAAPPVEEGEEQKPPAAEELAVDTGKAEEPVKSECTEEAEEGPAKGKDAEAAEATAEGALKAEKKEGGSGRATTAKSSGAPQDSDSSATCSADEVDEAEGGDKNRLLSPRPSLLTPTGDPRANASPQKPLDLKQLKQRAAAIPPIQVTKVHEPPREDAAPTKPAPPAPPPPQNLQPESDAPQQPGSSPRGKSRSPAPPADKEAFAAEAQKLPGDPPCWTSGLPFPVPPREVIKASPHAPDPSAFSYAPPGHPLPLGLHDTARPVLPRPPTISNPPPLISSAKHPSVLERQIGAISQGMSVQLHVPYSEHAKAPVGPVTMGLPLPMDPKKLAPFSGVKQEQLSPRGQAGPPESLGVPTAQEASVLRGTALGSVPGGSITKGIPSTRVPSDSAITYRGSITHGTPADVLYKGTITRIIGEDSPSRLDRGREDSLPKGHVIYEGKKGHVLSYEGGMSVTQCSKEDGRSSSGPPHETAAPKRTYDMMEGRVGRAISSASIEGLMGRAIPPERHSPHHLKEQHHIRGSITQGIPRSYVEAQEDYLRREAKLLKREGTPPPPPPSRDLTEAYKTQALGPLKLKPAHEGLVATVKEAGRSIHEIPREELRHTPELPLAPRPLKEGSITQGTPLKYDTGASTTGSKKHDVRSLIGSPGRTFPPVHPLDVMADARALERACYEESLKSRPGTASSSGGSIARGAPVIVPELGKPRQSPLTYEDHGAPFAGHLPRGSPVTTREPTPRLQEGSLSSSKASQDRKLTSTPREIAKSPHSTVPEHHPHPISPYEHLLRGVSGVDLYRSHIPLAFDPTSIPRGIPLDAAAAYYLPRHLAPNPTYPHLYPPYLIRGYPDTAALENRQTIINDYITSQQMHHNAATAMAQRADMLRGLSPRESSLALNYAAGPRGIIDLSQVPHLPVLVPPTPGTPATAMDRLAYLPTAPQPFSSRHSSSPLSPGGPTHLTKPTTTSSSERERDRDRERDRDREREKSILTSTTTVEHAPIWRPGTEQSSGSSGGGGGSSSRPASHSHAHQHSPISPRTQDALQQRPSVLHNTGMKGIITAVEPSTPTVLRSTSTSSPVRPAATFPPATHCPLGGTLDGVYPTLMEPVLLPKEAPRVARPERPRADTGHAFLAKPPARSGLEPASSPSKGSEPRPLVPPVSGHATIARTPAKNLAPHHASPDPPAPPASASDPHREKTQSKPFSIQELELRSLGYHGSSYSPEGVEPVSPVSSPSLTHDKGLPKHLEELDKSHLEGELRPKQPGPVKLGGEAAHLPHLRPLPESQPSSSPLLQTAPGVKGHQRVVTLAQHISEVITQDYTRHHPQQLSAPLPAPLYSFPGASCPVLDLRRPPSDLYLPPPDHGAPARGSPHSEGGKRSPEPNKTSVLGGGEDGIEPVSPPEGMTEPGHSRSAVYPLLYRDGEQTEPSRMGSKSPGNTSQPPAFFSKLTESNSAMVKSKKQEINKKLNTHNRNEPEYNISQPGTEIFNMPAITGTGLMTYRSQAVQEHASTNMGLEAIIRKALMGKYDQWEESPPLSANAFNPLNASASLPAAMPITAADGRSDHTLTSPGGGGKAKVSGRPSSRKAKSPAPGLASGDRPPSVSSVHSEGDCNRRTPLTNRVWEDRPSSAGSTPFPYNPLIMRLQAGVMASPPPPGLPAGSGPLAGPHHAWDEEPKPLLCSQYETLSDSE
Mig6 segment 1 peptide segment 1 (Homo sapiens), sequence (Q9UJM3 334-363): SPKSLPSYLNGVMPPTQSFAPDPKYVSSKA
Mig6 segment 1 peptide (Homo sapiens), sequence (Q9UJM3 336-364): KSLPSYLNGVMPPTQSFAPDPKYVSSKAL

## Bcl6 BTB (from UniProt P41182)
[1]
  Kd: 1.3 µM
[2]
  Kd: 11 µM
[3]
  Kd: 1.3 µM
[4]
  Kd: 11 µM

## EGFR kinase domain C-lobe (from UniProt P00533)
[5]
  Kd: 13 µM
[6]
  Kd: 13 µM

## MDM2 MDM2N (from UniProt Q00987)
[7]
  Kd: 26 µM
[8]
  Kd: 1.4 µM

## MDM2 N-terminal domain (from UniProt Q00987)
[9]
  Kd: 1.4 µM
[10]
  Kd: 26 µM
